Reference: patent US20220119488A1, “BICYCLIC PEPTIDE LIGANDS SPECIFIC FOR INTEGRIN ALPHA-V-BETA-3” (priority 2019, published 2022)
Numbered stars: 1 amine (or outer) side, 2 acyl side, 3 side chain; on linkers, the order of the positions; unused ones are H or OH. Bridge positions count the residues as written; N and C are the ends. Square brackets hold non-standard residues; d marks the D form. Ends that are not written are not given here. TBMB = c1c(C[*:1])cc(C[*:3])cc1C[*:2]; Fl = fluorescein; Sar = CNCC(=O)O

B1: BCY2572 (peptide)
peptide: ACLDHMECRGDMDCAXXXXXXK
modifications: Sar6 (six sarcosines); fluorescein (Fl) on the C-terminal K; Ci, Cii and Ciii bound to the TBMB scaffold
notes: Fluorescent bicyclic peptide
B2: BCY2577 (peptide)
peptide: Ac-CILRPNCDLDGRCA[Sar][Sar][Sar][Sar][Sar][Sar]K
modifications: linker 1-7-13 via TBMB; not fully specified (residue 21); also: Fl on the C-terminal K
notes: Fluorescent bicyclic peptide

What was measured:
human integrin αvβ3 [1] = target: T1, human integrin αvβ3 (human, UniProt P06756 31-992; P05106 27-718, limits assumed); assay: human FP direct binding; column 'Mean', n=9
T1 sequence (P06756 31-992 limits assumed, chain 1 of 2): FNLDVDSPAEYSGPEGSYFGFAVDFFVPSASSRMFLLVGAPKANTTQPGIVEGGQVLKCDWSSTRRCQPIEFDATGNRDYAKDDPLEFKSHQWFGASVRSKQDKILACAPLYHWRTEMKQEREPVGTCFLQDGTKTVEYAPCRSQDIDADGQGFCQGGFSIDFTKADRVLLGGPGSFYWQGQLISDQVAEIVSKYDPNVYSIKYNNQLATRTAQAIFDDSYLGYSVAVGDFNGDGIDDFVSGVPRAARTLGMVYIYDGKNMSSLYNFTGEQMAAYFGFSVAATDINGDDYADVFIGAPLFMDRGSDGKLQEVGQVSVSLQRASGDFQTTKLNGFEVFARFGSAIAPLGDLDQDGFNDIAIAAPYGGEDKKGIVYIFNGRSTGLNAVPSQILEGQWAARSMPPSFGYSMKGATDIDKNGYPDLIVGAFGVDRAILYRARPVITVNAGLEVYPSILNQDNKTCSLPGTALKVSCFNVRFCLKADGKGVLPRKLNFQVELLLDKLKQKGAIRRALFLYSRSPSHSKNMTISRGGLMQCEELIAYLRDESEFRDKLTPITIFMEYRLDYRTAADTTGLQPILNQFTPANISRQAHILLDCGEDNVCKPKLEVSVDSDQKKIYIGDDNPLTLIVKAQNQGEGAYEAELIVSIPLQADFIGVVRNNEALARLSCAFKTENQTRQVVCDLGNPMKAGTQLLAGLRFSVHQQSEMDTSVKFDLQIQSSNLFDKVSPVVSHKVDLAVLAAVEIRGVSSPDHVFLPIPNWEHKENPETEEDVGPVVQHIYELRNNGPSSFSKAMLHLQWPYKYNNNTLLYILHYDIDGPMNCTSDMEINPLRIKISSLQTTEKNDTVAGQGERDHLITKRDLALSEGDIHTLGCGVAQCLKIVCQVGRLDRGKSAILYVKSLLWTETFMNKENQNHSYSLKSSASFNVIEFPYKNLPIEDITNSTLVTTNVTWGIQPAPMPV
T1 sequence (P05106 27-718 limits assumed, chain 2 of 2): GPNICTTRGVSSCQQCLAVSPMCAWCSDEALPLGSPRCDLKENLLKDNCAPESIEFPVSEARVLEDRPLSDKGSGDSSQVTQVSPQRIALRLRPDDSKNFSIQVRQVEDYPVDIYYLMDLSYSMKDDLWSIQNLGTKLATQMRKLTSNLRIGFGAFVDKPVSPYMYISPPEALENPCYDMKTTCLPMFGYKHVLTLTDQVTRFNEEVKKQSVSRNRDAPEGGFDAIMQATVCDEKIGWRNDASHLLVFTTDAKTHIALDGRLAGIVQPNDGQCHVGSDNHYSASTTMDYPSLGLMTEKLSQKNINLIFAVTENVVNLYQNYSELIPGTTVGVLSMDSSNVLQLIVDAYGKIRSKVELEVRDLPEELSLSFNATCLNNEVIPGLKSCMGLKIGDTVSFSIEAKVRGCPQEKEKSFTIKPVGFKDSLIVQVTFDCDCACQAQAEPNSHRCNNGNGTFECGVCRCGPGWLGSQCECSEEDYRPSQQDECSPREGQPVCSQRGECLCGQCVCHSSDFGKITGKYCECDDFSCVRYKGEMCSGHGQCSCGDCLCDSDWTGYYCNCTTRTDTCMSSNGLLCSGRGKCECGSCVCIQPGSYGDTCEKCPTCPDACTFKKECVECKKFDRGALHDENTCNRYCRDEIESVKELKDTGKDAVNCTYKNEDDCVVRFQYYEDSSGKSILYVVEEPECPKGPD

human integrin αvβ3 [2] = target: T1, human integrin αvβ3; assay: human FP direct binding; n=2
human integrin αvβ3 [3] = target: T1, human integrin αvβ3; assay: human FP direct binding; column 'Mean', n=2

Row | Binder | Kd (human integrin αvβ3 [1]) [nM] | Kd (human integrin αvβ3 [2]) [nM] | Kd (human integrin αvβ3 [3]) [nM]
1 | B1 | 9 | – | –
2 | Fl-G[Sar][Sar][Sar][Sar][Sar]ACLDHMECRGDMDC (linker 8-14-20 via TBMB, Fluorescent bicyclic peptide) [BCY2573] | – | 1 | 1
3 | B2 | – | 2 | 2
